Measured values: US11311610B2, “Immune-modulating agents and uses therefor” (UNIVERSITY OF TECHNOLOGY SYDNEY, priority 2010, dated 2022)

Key:
human monocytes = experiment: Activation marker expression on stimulated human monocytes (flow cytometry); type: cell-based; conditions: human monocytes stimulated 40 h with 10 μg/mL
[1] = system: LPS-induced inflammatory response; experiment: Endotoxin (LPS)-induced inflammation in mice, co-injection; type: in vivo, BALB/c mice
Procedure: FIG. 9 is a graphical representation showing LPS neutralization by FhHDM-1. The ability of FhHDM-1 (Δ), FhHDM-1 p1 (●) or FhHDM-1 p3 (▪) to bind to LPS was investigated by (A) incubating a range of concentrations of proteins (0.02-2 μg/well) in an LPS-coated (100 ng/well) microtitre plate. Bound peptides were detected by ELISA using rabbit anti-FhHDM-1 as a primary antibody. (B) FhHDM-1 or derived peptides (0.1 μg) were incubated in the presence of LPS (0.05-5 μg/well) and bound peptides measured as described above. Binding of peptides to the LPS-immobilized plates was expressed as a percentage of that measured for 2 μg (for panel A) or 0.1 μg (for panel B) of FhHDM-1. Data are the means±SD from three separate experiments. (C) FhHDM-1 and FhHDM-1 p3 but not FhHDM-1 p1 reduced the interaction between LPS and LBP as effectively as LL-37. LPS-coated microtitre plates were incubated with 5 μg/well of LL-37, FhHDM-1 or derived peptides for 1 h prior to the addition of 10% human sera in PBS. Interaction of LBP with LPS was measured by ELISA using an anti-LBP primary antibody and expressed as a percentage of that detected for 10% sera in the absence of added peptides. Data are the mean±SD of three separate experiments. Statistical significance was calculated using the student t-test and represent a comparison to the binding of 10% sera to immobilized LPS. (D) Binding of FITC-conjugated LPS to RAW264.7 cells was inhibited by LL-37, FhHDM-1 and peptides. RAW264.7 cells (5×10^5 cells/mL) were incubated with 1 μg/mL of FITC-conjugated LPS in the presence of increasing concentrations (0.1-10 μg/mL) of FhHDM-1, FhHDM-1 p1 and FhHDM-1 p3 and LL-37 in RPMI 1640 containing 10% FBS for 20 min at 4° C. The binding of FITC-LPS was analyzed by flow cytometry. LPS binding was expressed as a percentage of the mean fluorescence obtained for the addition of FITC-LPS to cells in the absence of peptides. Data are the mean±SD of two independent experiments. (E) FhHDM-1 and FhHDM-1 p3 both suppress the inflammatory response induced by LPS in mice. BALB/c mice were intra-peritoneally injected with 1 μg of LPS alone or combined with 1 μg of FhHDM-1, FhHDM-1 p3 or LL-37. Two hours later, sera was collected and serum levels of TNF and (F) IL-10 measured by ELISA. (G) Peritoneal macrophages were isolated, cultured unstimulated in media overnight and then levels of TNF and (H) IL-10 in the culture measured by ELISA. Data are the mean±SD of six mice in each group. Statistical significance represents a comparison to the levels of cytokines secreted by mice given LPS only.
Human Defense peptides protect against harmful inflammatory responses by preventing activation of macrophages by classical TLR ligands such as LPS (Scott et al. 2002, J. Immunol. 169, 3883-3891). Here, the inventors employed a murine model to examine whether FhHDM-1 and derived peptides can suppress LPS-induced Th1 inflammation. BALB/c mice were injected intra-peritoneally with 1 μg of LPS alone or LPS combined with 1 μg of FhHDM-1, FhHDM-1 p3 or LL-37. Two hours later, sera was collected and serum levels of the pro-inflammatory mediators TNF and IL-10 were measured by ELISA. […] Because macrophages are the main source of pro-inflammatory mediators in this murine model of inflammation, peritoneal macrophages were isolated from treated mice (LPS±FhHDM-1, peptides or LL-37 as described above), cultured unstimulated in media overnight and then levels of TNF and IL-10 in the culture media were measured by ELISA.
Six week-old female BALB/c mice were purchased from ARC (Perth, Australia) and maintained according to the guidelines of the University of Technology Sydney Animal Care and Ethics committee. For the analysis for endotoxin-induced inflammation, mice were intra-peritoneally injected with 1 μg of E. coli LPS (serotype 111:B4; Sigma) either with or without 1 μg FhHDM-1 or derived peptides. After 2 h mice were sacrificed by cervical dislocation. […]

[2] = system: primary human macrophages; experiment: Confocal microscopy of macrophages incubated with FhHDM-1; type: cell-based; conditions: 10 μg/mL for 2 h
Procedure: FIG. 10 is a photographic representation showing representative immunofluorescent images obtained by confocal microscopy at an original magnification 100× of primary human macrophages (A) and (C) incubated with recombinant FhHDM-1 (10 μg/mL for 2 h). Images (B) and (D) were experimental controls incubated with media only. Cells were stained with mouse anti-His MAb (1/2000), goat-anti-mouse Alexa-488-conjugated secondary antibody (1/1000) (green staining) and DiI plasma membrane stain (red staining). DAPI was used for identification of the cell nucleus (blue staining).

peritoneal macrophages = experiment: IL-10 secretion by peritoneal macrophages of treated NOD mice; type: in vivo; conditions: 10 μg i.p. x6, 24 h after last injection, compared to untreated mice
Procedure: FhHDM-1 was given to female NOD mice aged 4 weeks. 10 μg of FhHDM-1 was delivered i.p. in PBS on alternate days for a total of 6 doses. 24 h after the last injection, macrophages were isolated from the peritoneal lavage and cultured in RPMI supplemented with FCS for 12 h. IL-10 secreted into the media was measured by ELISA.
Female NOD mice (n=6) were given recombinant HDM (10 μg in 100 μL sterile PBS) by intraperitoneal (i.p.) injection on alternate days beginning at 4 weeks of age for a total of 6 injections. Control mice were given 100 μL of sterile PBS on the same days. 24 h after the last injection mice were sacrificed and peritoneal cells harvested by lavage. Macrophages were isolated from peritoneal lavages based upon their adherent properties, and cultured overnight at 37° C. in RPMI supplemented with FCS. The quantity of IL-10 secreted into the media was measured by ELISA.

[3] = BALB/c mice, 1 μg LPS mixed with 1 μg i.p., 2 h
[4] = macrophages from treated mice, cultured unstimulated overnight

B1: FhHDM-1: 90-residue polypeptide from F. hepatica, Helminth Defense Molecule-1 (SEQ ID NO:24); recombinant form minus N-terminal signal peptide, expressed in E. coli (protein, listed as Fasciola hepatica)
chain: MRFIVLLCLAEVLLAAYVEARPSEESREKLRESGRKMVKALRDAVTKAYEKARDRAMAYLAKDNLGEKITEVITILLNRLTDRLEKYAGN
expression of markers of alternative activation (CD163 and CD206) (human monocytes): increased expression
expression of markers of the classical phenotype (CD86 and HLA-DR) (human monocytes): decreased expression
serum levels of IL-10 [1, 3]: significant reduction
serum levels of TNF [1, 3]: significant reduction
LPS-induced secretion of IL-10 from peritoneal macrophages [1, 4]: significantly inhibited
TNF secreted from peritoneal macrophages [1, 4]: significantly reduced
interaction with the plasma membrane of macrophages [2]: interacts with the plasma membrane
IL-10 secreted by peritoneal macrophages (peritoneal macrophages): significantly more
